Article PMC2121020 (The Journal of Cell Biology, 1996)

T1: CD44 of BHK cells (hamster (endogenous in BHK), UniProt Q60522 23-431)
T1 sequence: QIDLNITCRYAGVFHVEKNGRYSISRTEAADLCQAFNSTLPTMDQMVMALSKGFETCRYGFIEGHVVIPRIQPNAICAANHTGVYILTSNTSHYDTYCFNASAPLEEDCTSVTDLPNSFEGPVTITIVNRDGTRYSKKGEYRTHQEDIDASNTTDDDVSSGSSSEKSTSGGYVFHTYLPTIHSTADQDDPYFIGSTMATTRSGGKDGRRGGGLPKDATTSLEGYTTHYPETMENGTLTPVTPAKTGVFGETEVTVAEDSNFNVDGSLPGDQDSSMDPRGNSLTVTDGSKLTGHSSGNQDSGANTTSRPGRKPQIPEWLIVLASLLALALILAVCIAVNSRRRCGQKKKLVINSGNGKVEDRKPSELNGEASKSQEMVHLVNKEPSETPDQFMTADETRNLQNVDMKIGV

B1: recombinant mouse radixin (natural protein)
chain: MPKPINVRVTTMDAELEFAIQPNTTGKQLFDQVVKTVGLREVWFFGLQYVDSKGYSTWLKLNKKVTQQDVKKENPLQFKFRAKFFPEDVSEELIQEITQRLFFLQVKEAILNDEIYCPPETAVLLASYAVQAKYGDYNKEIHKPGYLANDRLLPQRVLEQHKLTKEQWEERIQNWHEEHRGMLREDSMMEYLKIAQDLEMYGVNYFEIKNKKGTELWLGVDALGLNIYEHDDKLTPKIGFPWSEIRNISFNDKKFVIKPIDKKAPDFVFYAPRLRINKRILALCMGNHELYMRRRKPDTIEVQQMKAQAREEKHQKQLERAQLENEKKKREIAEKEKERIEREKEELMERLRQIEEQTVKAQKELEEQTRKALELEQERQRAKEEAERLDRERRAAEEAKSAIAKQAADQMKNQEQLAAELAEFTAKIALLEEAKKKKEEEATEWQHKAFAAQEDLEKTKEELKTVMSAPPPPPPPPVIPPTENEHDEQDENSAEASAELSSEGVMNHRSEEERVTETQKNERVKKQLQALSSELAQARDETKKTQNDVLHAENVKAGRDKYKTLRQIRQGNTKQRIDEFEAM
B2: recombinant mouse moesin (natural protein)
chain: MPKTISVRVTTMDAELEFAIQPNTTGKQLFDQVVKTIGLREVWFFGLQYQDTKAFSTWLKLNKKVTAQDVRKESPLLFKFRAKFYPEDVSEELIQDITQRLFFLQVKEGILNDDIYCPPETAVLLASYAVQSKYGDFNKEVHKSGYLAGDKLLPQRVLEQHKLNKDQWEERIQVWHEEHRGMLREDAVLEYLKIAQDLEMYGVNYFSIKNKKGSELWLGVDALGLNIYEQNDRLTPKIGFPWSEIRNISFNDKKFVIKPIDKKAPDFVFYAPRLRINKRILALCMGNHELYMRRRKPDTIEVQQMKAQAREEKHQKQMERALLENEKKKRELAEKEKEKIEREKEELMEKLKQIEEQTKKAQQELEEQTRRALELEQERKRAQSEAEKLAKERQEAEEAKEALLQASRDQKKTQEQLASEMAELTARISQLEMARKKKESEAVEWQQKAQMVQEDLEKTRAELKTAMSTPHVAEPAENEHDEQDENGAEASAELRADAMAKDRSEEERTTEAEKNERVQKHLKALTSELANARDESKKTANDMIHAENMRLGRDKYKTLRQIRQGNTKQRIDEFESM
B3: recombinant mouse ezrin (natural protein)
chain: MPKPINVRVTTMDAELEFAIQPNTTGKQLFDQVVKTIGLREVWYFGLQYVDNKGFPTWLKLDKKVSAQEVRKENPVQFKFRAKFYPEDVAEELIQDITQKLFFLQVKDGILSDEIYCPPETAVLLGSYAVQAKFGDYNKEMHKSGYLSSERLIPQRVMDQHKLSRDQWEDRIQVWHAEHRGMLKDSAMLEYLKIAQDLEMYGINYFEIKNKKGTDLWLGVDALGLNIYEKDDKLTPKIGFPWSEIRNISFNDKKFVIKPIDKKAPDFVFYAPRLRINKRILQLCMGNHELYMRRRKPDTIEVQQMKAQAREEKHQKQLERQQLETEKKRRETVEREKEQMLREKEELMLRLQDYEQKTKRAEKELSEQIEKALQLEEERRRAQEEAERLEADRMAALRAKEELERQAQDQIKSQEQLAAELAEYTAKIALLEEARRRKEDEVEEWQHRAKEAQDDLVKTKEELHLVMTAPPPPPPPVYEPVNYHVQEGLQDEGAEPMGYSAELSSEGILDDRNEEKRITEAEKNERVQRQLLTLSNELSQARDENKRTHNDIIHNENMRQGRDKYKTLRQIRQGNTKQRIDEFEAM

How the values were obtained:
[1] = molecular target: B1; assay: pull-down
recombinant mouse moesin = molecular target: B2; assay: pull-down
recombinant mouse ezrin = molecular target: B3; assay: pull-down
CD44 of BHK cells = molecular target: T1, CD44 of BHK cells; assay: co-sedimentation

Row | binding result [1] | Kd (recombinant mouse moesin) [nM] | binding result (recombinant mouse ezrin) | amount recovered in the insoluble fraction (of about 0.8 ug added) (CD44 of BHK cells) [µg] | Binder
1 | binds | 9.3 ± 1.6 | binds |  | GST fusion protein with the cytoplasmic domain of mouse CD44 (domain or fragment) NSRRRCGQKKKLVINGGNGTVEDRKPSELNGEASKSQEMVHLVNKEPSETPDQCMTADETRNLQSVDMKIGV
2 |  |  |  | ~0.05 | B1
3 |  |  |  | ~0.05 | B2
4 |  |  |  | ~0.05 | B3
